Article PMC5663884, “Compositional and expression analyses of the glideosome during the Plasmodium life cycle reveal an additional myosin light chain required for maximum motility” (The Journal of Biological Chemistry, 2017)
Residues, ends and D or L forms follow the SMILES beside them. *: point of attachment. Biotin = O=C1N[C@H]2[C@H](CS[C@H]2CCCCC(=O)*)N1

Legend:
PfELC = target: T1, PfELC (Plasmodium falciparum, UniProt Q8IJM4); experiment: biolayer interferometry binding of PfELC to immobilized MyoA neck peptides; parameters: species or system P. falciparum; conditions: 25 °C, pH 8.0, PfELC 0.04–5 μM
T1 construct: His tag (N); made in house; host or cells: E. coli BL21 (DE3)
Protocol: Overlapping peptides representing amino acids Gln^770–Ala^787, Ala^786–Ser^803, and Ile^801–Gln^818 of the PfMyoA neck were synthesized by Mimotopes with biotin at the N terminus. […] The C termini of the peptides were capped with an amide to remove unnatural charge, apart from peptide 801–818, which was left as a free acid.
P. falciparum ELC binding to peptides was analyzed by biolayer interferometry using the Octet Red system (ForteBio) at 25 °C in 96-well microplates, as described previously ([63]). All assays were performed in 100 mM Tris-HCl, pH 8.0, containing 0.005% (v/v) Tween 20, according to the manufacturer's instructions. A baseline was established over 4 min, and biotinylated peptides (0.4 μg/ml) were loaded onto streptavidin sensors for 10 min. The sensors were washed for 4 min and then incubated with PfELC at different concentrations (0.04–5 μM) for 800 s. The data were analyzed to calculate a dissociation constant (Kd) using non-linear regression with a one-site binding model and a least-squares fit (GraphPad Prism version 6).

MyoA = experiment: immunoprecipitation with GFP-specific antibodies, Western blot: MyoA-GFP; format: binding, P. falciparum; conditions: schizont lysate, probed with anti-PfELC antibodies
Protocol: (§1) Parasite lysates were precleared by incubation with blocked agarose beads for 1 h, and then the supernatant was incubated with GFP-Trap agarose beads for 2 h at 4 °C with end-over-end rotation. […] Finally, the beads were resuspended in 5 volumes of 2× SDS-PAGE sample buffer and boiled for 5 min before fractionation of the proteins by SDS-PAGE.

[1] = circular dichroism of recombinant PfELC; format: physicochemical
Protocol: Far-UV CD spectra were recorded on a Jasco J-815 spectropolarimeter fitted with a cell holder thermostatted by a CDF-426S Peltier unit. CD measurements were made at a protein concentration of 10 μM PfELC in 25 mM Tris-HCl, pH 8.0, 50 mM NaCl using fused silica cuvettes with a 1-mm path length (Hellma). All spectra were recorded with 0.1 nm resolution and baseline-corrected by subtraction of the buffer spectrum. Secondary structure content was estimated using methods described by Sreerama and Woody ([62]).

MTIP = conditions: 3D7 schizont or merozoite lysate, PfELC-specific antibodies
MyoB complex = experiment: immunoprecipitation with GFP-specific antibodies, Western blot: MyoB-GFP; format: binding, P. falciparum; conditions: schizont lysate, probed with anti-PfELC antibodies
Protocol: as §1

[2] = target: T2, Recombinant His-tagged PfELC (E. coli) (P. falciparum, UniProt Q8IJM4 1-134); experiment: BLI; conditions: both partners purified
T2 construct: also called His-PfELC; His-ELC; source: E. coli BL21 (DE3), purified (nickel-nitrilotriacetic acid-agarose)
T2 sequence: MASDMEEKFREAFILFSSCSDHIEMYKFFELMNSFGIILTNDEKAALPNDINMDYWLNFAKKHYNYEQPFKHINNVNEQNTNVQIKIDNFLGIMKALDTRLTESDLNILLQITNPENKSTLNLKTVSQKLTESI

actin = experiment: optical tweezer-based single-molecule acto-MyoA interaction; format: biochemical
Protocol: MyoA was expressed in a wheat germ cell-free protein synthesis system (ENDEXT® Technology, CellFree Sciences) ([64]). Recombinant plasmid DNA using recodonized template DNA was amplified using specific primers and cloned into the vector pEU-E01G-TEV-N1 to express N-terminal GST-tagged protein. For the in vitro transcription reaction, 2 μg of DNA was added to a transcription premix (11.5 μl of nuclease-free water, 1× transcription buffer, 2.5 mM NTP mix, 1 unit/μl RNase inhibitor, 1 unit/μl SP6 RNA polymerase) in a total volume of 20 μl and incubated at 37 °C for 6 h, according to the manufacturer's instructions. The quality of mRNA produced was monitored by gel electrophoresis. The bilayer reaction system (CellFree Sciences) was used to translate mRNA into protein. mRNA (10 μl) was added to 10 μl of wheat germ extract (WEPRO® 1240) supplemented with 40 ng/μl creatine kinase and carefully transferred directly below the SUB-AMIX solution (0.3 mM of each L-amino acid, 100 mM potassium acetate, 2.7 mM magnesium acetate, 16 mM disodium creatine phosphate, 0.4 mM spermidine, 1.2 mM ATP, 0.25 mM GTP, 4 mM dithiothreitol, and 30 mM HEPES-KOH (pH 7.8)) and incubated for 20 h at 15–16 °C. Soluble GST-tagged MyoA was purified using glutathione-Sepharose beads (GE Healthcare); supernatant was incubated with the resin for 2 h at 4 °C, followed by extensive washing with 20 mM Tris-HCl, pH 8.0, 250 mM NaCl, 0.5 mM TCEP. The beads were resuspended in 3 volumes of 20 mM Tris-HCl, pH 8.0, 100 mM NaCl, 10 mM reduced glutathione to elute the GST-tagged protein. This was followed by buffer exchange into PBS on a PD10 column (GE Healthcare).
The optical tweezer assay, developed to measure the force and movement produced by individual myosin molecules interacting with an actin filament, was used in the well-established three-bead format with the experimental conditions as described ([65][–][67]). The experimental apparatus is based around a Zeiss inverted microscope, and experiments were performed in a flow-cell chamber created using a microscope slide and coverslip. […] Interactions between the surface-bound MyoA and the actin filament were recorded by monitoring movement of the beads held in the optical tweezers using two 4-quadrant, photodiode detectors. […] Individual events were then automatically detected by measuring changes in amplitude of the imposed triangular oscillation, and event amplitudes were histogrammed. Data were acquired and saved to computer memory using custom software, with a sampling rate of 10 kHz, and later analyzed using IgorPro software (WaveMetrics Inc., Lake Oswego, OR). Individual acto-MyoA force-producing events were identified as described previously ([65]), and the MyoA power-stroke amplitude and kinetics were analyzed by histogram analysis of the data.

[3] = far-UV CD, 10 μM PfELC, 25 mM Tris-HCl pH 8.0, 50 mM NaCl

CC[C@H](C)[C@H](NC(=O)[C@H](C)NC(=O)[C@H](C)NC(=O)CNC(=O)[C@H](CO)NC(=O)CNC(=O)[C@H](CO)NC(=O)CCCC[C@@H]1SC[C@@H]2NC(=O)N[C@@H]21)C(=O)N[C@@H](CC(C)C)C(=O)N[C@@H](CCCCN)C(=O)N[C@@H](Cc1c[nH]cn1)C(=O)N[C@@H](CCCCN)C(=O)N[C@@H](Cc1ccc(O)cc1)C(=O)N[C@@H](CCCCN)C(=O)N[C@@H](CCC(N)=O)C(=O)N[C@@H](CCCCN)C(=O)N[C@H](C(=O)N[C@@H](CC(N)=O)C(=O)N[C@@H](CCCCN)C(=O)N[C@@H](CC(N)=O)C(=O)N[C@H](C(=O)N1CCC[C@H]1C(=O)N[C@@H](CO)C(N)=O)[C@@H](C)CC)C(C)C [786–803] (Biotin-SGSGAAILKHKYKQKVNKNIPS-NH2)
binding to PfELC (in words) (PfELC): binds strongly to PfELC

essential light chain [PfELC]
presence in MyoA-GFP immunoprecipitate (MyoA): a 14-kDa protein associated with MyoA in the glideosome complex
effect of calcium on near- or far-UV CD spectrum ([1]; 1 mM calcium ions): no effect on either the near- or far-UV spectrum
turn content [1, 3]: 20%
α helix content [1, 3]: 32%
β sheet content [1, 3]: 17%
presence in anti-MTIP immunoprecipitate (MTIP): present with MTIP in the same complex
presence in MyoB-GFP immunoprecipitate (MyoB complex): none was detected associated with the MyoB complex

peptide 770–787: biotinylated PfMyoA neck peptide Gln770–Ala787 with SGSG linker, C-terminal amide (Biotin-SGSGQREKLVEWENCVSVIEAA-NH2; SMILES CC[C@H](C)[C@H](NC(=O)[C@@H](NC(=O)[C@H](CO)NC(=O)[C@@H](NC(=O)[C@H](CS)NC(=O)[C@H](CC(N)=O)NC(=O)[C@H](CCC(=O)O)NC(=O)[C@H](Cc1c[nH]c2ccccc12)NC(=O)[C@H](CCC(=O)O)NC(=O)[C@@H](NC(=O)[C@H](CC(C)C)NC(=O)[C@H](CCCCN)NC(=O)[C@H](CCC(=O)O)NC(=O)[C@H](CCCNC(=N)N)NC(=O)[C@H](CCC(N)=O)NC(=O)CNC(=O)[C@H](CO)NC(=O)CNC(=O)[C@H](CO)NC(=O)CCCC[C@@H]1SC[C@@H]2NC(=O)N[C@@H]21)C(C)C)C(C)C)C(C)C)C(=O)N[C@@H](CCC(=O)O)C(=O)N[C@@H](C)C(=O)N[C@@H](C)C(N)=O; UniProt Q8IDR3 770-787, looked up, fragment)
binding to PfELC (in words) (PfELC): no observable binding
binding to PfELC (in words) (PfELC; listed as MyoA 770–787): no binding

B1: Biotinylated PfMyoA neck peptide 786–803 (peptide)
peptide: Biotin-SGSGAAILKHKYKQKVNKNIPS-NH2
SMILES: CC[C@H](C)[C@H](NC(=O)[C@H](C)NC(=O)[C@H](C)NC(=O)CNC(=O)[C@H](CO)NC(=O)CNC(=O)[C@H](CO)NC(=O)CCCC[C@@H]1SC[C@@H]2NC(=O)N[C@@H]21)C(=O)N[C@@H](CC(C)C)C(=O)N[C@@H](CCCCN)C(=O)N[C@@H](Cc1c[nH]cn1)C(=O)N[C@@H](CCCCN)C(=O)N[C@@H](Cc1ccc(O)cc1)C(=O)N[C@@H](CCCCN)C(=O)N[C@@H](CCC(N)=O)C(=O)N[C@@H](CCCCN)C(=O)N[C@H](C(=O)N[C@@H](CC(N)=O)C(=O)N[C@@H](CCCCN)C(=O)N[C@@H](CC(N)=O)C(=O)N[C@H](C(=O)N1CCC[C@H]1C(=O)N[C@@H](CO)C(N)=O)[C@@H](C)CC)C(C)C
notes: source: synthetic peptide (Mimotopes)
Kd [2]: 480 nM

B2: Biotinylated PfMyoA neck peptide 801–818 (peptide)
peptide: Biotin-SGSGIPSLLRVQAHIRKKMVAQ-OH
SMILES: CC[C@H](C)[C@H](NC(=O)[C@H](Cc1c[nH]cn1)NC(=O)[C@H](C)NC(=O)[C@H](CCC(N)=O)NC(=O)[C@@H](NC(=O)[C@H](CCCNC(=N)N)NC(=O)[C@H](CC(C)C)NC(=O)[C@H](CC(C)C)NC(=O)[C@H](CO)NC(=O)[C@@H]1CCCN1C(=O)[C@@H](NC(=O)CNC(=O)[C@H](CO)NC(=O)CNC(=O)[C@H](CO)NC(=O)CCCC[C@@H]1SC[C@@H]2NC(=O)N[C@@H]21)[C@@H](C)CC)C(C)C)C(=O)N[C@@H](CCCNC(=N)N)C(=O)N[C@@H](CCCCN)C(=O)N[C@@H](CCCCN)C(=O)N[C@@H](CCSC)C(=O)N[C@H](C(=O)N[C@@H](C)C(=O)N[C@@H](CCC(N)=O)C(=O)O)C(C)C
notes: as for B1
Kd [2]: 320 nM

B3: Myosin A (protein)
chain: MAVTNEEIKTASKIVRRVSNVEAFDKSGSVFKGYQIWTDISPTIENDPNIMFVKCVVQQGSKKEKLTVVQIDPPGTGTPYDIDPTHAWNCNSQVDPMSFGDIGLLNHTNIPCVLDFLKHRYLKNQIYTTAVPLIVAINPYKDLGNTTNEWIRRYRDTADHTKLPPHVFTCAREALSNLHGVNKSQTIIVSGESGAGKTEATKQIMRYFASSKSGNMDLRIQTAIMAANPVLEAFGNAKTIRNNNSSRFGRFMQLVISHEGGIRYGSVVAFLLEKSRIITQDDNERSYHIFYQFLKGANSTMKSKFGLKGVTEYKLLNPNSTEVSGVDDVKDFEEVIESLKNMELSESDIEVIFSIVAGILTLGNVRLIEKQEAGLSDAAAIMDEDMGVFNKACELMYLDPELIKREILIKVTVAGGTKIEGRWNKNDAEVLKSSLCKAMYEKLFLWIIRHLNSRIEPEGGFKTFMGMLDIFGFEVFKNNSLEQLFINITNEMLQKNFVDIVFERESKLYKDEGISTAELKYTSNKEVINVLCEKGKSVLSYLEDQCLAPGGTDEKFVSSCATNLKENNKFTPAKVASNKNFIIQHTIGPIQYCAESFLLKNKDVLRGDLVEVIKDSPNPIVQQLFEGQVIEKGKIAKGSLIGSQFLNQLTSLMNLINSTEPHFIRCIKPNENKKPLEWCEPKILIQLHALSILEALVLRQLGYSYRRTFEEFLYQYKFVDIAAAEDSSVENQNKCVNILKLSGLSESMYKIGKSMVFLKQEGAKILTKIQREKLVEWENCVSVIEAAILKHKYKQKVNKNIPSLLRVQAHIRKKMVAQ
modifications: left off: GST, N-terminal, kept
notes: GST-tagged PfMyoA expressed in wheat germ cell-free system
rate constant of event lifetimes (single-exponential least-square fit) (actin; 0.3 μM Mg·ATP): 6.9 s⁻¹
rate constant of event lifetimes (single-exponential least-square fit) (actin; 8 μM Mg·ATP): 53 s⁻¹
second-order rate constant for Mg·ATP binding and dissociating the acto-MyoA rigor complex (actin; from event lifetimes at 0.3 and 8 μM ATP): ~1.5e+07 M⁻¹ s⁻¹
working stroke (power stroke) (actin; shift in mean position of event distribution, 244 acto-MyoA binding events, 2 μM ATP): 3 nm
